In series [1] the test system is proNGF mutant SP174-101 (protease cleavage site mutated to VSAR).

The values that follow come from patent US20200031893.

proNGF mutant SP174-101 (protease cleavage site mutated to VSAR), sequence (chain, as listed by the source mutant): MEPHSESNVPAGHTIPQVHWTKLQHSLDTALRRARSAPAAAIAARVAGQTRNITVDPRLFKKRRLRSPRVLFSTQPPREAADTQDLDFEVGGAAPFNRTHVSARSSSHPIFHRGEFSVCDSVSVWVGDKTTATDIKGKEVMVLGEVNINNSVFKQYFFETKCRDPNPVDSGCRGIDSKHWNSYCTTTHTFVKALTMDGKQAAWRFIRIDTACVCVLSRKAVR
human wild-type proNGF, sequence (chain, as listed by the source): as the sequence (chain, as listed by the source mutant) above, with V101R, A103K counted along it

For the substance Trypsin (Roche, GMP grade), in series [1], the % ProNGF remaining after tryptic digestion, Trypsin/ProNGF ratio 1/10000 (HPLC-UV) amounted to 1.9%; the % betaNGF (cleavage yield) after tryptic digestion, Trypsin/ProNGF ratio 1/10000 (HPLC-UV) was 84.5%; the “tryptic digestion, trypsin:proNGF 1:10,000 (w/w), 18 h, room temperature, SDS-PAGE” value is “A complete digestion of proNGF mutant to beta-NGF could be observed”. In addition, in the series with human wild-type proNGF, the % ProNGF remaining after tryptic digestion, Trypsin/ProNGF ratio 1/250 (HPLC-UV) worked out at 0%; the % ProNGF remaining after tryptic digestion, Trypsin/ProNGF ratio 1/1000 (HPLC-UV) was found to be 0%; the % ProNGF remaining after tryptic digestion, Trypsin/ProNGF ratio 1/5000 (HPLC-UV) worked out at 21.5%; the % ProNGF remaining after tryptic digestion, Trypsin/ProNGF ratio 1/10000 (HPLC-UV) stood at 67.1%. In the series with human wild-type proNGF, the % betaNGF (cleavage yield) after tryptic digestion, Trypsin/ProNGF ratio 1/250 (HPLC-UV) stood at 67.9%; the % betaNGF (cleavage yield) after tryptic digestion, Trypsin/ProNGF ratio 1/1000 (HPLC-UV) stood at 77.9%; the % betaNGF (cleavage yield) after tryptic digestion, Trypsin/ProNGF ratio 1/5000 (HPLC-UV) turned out to be 18.6%; the % betaNGF (cleavage yield) after tryptic digestion, Trypsin/ProNGF ratio 1/10000 (HPLC-UV) turned out to be 4.6%. In the series with human wild-type proNGF, the % betaNGF Overdigested Forms after tryptic digestion, Trypsin/ProNGF ratio 1/250 (HPLC-UV) came to 25.7%; the % betaNGF Overdigested Forms after tryptic digestion, Trypsin/ProNGF ratio 1/1000 (HPLC-UV) turned out to be 12.9%; the % betaNGF Overdigested Forms after tryptic digestion, Trypsin/ProNGF ratio 1/5000 (HPLC-UV) worked out at 6.6%.
